Paper doi:10.1101/2020.11.04.367136 (bioRxiv, 2020)

T1: GFP–Rad55–Rad57 complex (His6–GFP–Rad55 and FLAG–Rad57) (S. cerevisiae, UniProt P38953 1-406; P25301 1-460)
T1 sequence (looked up) 1: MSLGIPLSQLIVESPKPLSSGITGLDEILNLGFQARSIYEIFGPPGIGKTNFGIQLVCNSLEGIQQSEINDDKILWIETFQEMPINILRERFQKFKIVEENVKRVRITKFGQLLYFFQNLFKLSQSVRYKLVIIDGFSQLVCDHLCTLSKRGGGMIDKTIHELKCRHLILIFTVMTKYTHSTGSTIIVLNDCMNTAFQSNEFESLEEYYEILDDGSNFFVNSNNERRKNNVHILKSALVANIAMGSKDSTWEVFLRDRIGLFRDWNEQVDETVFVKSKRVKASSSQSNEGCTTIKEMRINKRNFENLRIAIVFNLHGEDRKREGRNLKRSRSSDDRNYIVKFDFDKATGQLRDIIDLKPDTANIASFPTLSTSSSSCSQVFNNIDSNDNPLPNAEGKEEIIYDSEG
T1 sequence (looked up) 2: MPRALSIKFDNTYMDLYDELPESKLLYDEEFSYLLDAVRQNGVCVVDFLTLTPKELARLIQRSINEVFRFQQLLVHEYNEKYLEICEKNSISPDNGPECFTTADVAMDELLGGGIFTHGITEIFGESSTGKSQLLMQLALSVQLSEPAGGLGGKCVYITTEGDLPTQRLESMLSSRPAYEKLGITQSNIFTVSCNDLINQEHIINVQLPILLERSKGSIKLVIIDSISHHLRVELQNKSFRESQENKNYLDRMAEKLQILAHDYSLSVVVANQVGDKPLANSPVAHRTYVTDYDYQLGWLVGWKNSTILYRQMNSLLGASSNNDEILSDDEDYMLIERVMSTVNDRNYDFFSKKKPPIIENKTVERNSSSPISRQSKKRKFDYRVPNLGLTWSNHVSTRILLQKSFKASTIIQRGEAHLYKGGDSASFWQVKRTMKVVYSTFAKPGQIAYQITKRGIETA

B1: Rad51 (natural protein, S. cerevisiae, UniProt P25454 1-400, looked up)
chain: MSQVQEQHISESQLQYGNGSLMSTVPADLSQSVVDGNGNGSSEDIEATNGSGDGGGLQEQAEAQGEMEDEAYDEAALGSFVPIEKLQVNGITMADVKKLRESGLHTAEAVAYAPRKDLLEIKGISEAKADKLLNEAARLVPMGFVTAADFHMRRSELICLTTGSKNLDTLLGGGVETGSITELFGEFRTGKSQLCHTLAVTCQIPLDIGGGEGKCLYIDTEGTFRPVRLVSIAQRFGLDPDDALNNVAYARAYNADHQLRLLDAAAQMMSESRFSLIVVDSVMALYRTDFSGRGELSARQMHLAKFMRALQRLADQFGVAVVVTNQVVAQVDGGMAFNPDPKKPIGGNIMAHSSTTRLGFKKGKGCQRLCKVVDSPCLPEAECVFAIYEDGVGDPREEDE

What was measured:
[1] = molecular target: T1, GFP–Rad55–Rad57 complex (His6–GFP–Rad55 …); assay: single-molecule ssDNA curtain assay
Rad51 = molecular target: B1; assay: single-molecule ssDNA curtain assay

koff [1] [s⁻¹] | binding result (Rad51) | Binder
0.00758 | – | B1
0.0058 | – | Rad51–K191R (natural protein, S. cerevisiae, UniProt P25454 1-400, looked up) MSQVQEQHISESQLQYGNGSLMSTVPADLSQSVVDGNGNGSSEDIEATNGSGDGGGLQEQAEAQGEMEDEAYDEAALGSFVPIEKLQVNGITMADVKKLRESGLHTAEAVAYAPRKDLLEIKGISEAKADKLLNEAARLVPMGFVTAADFHMRRSELICLTTGSKNLDTLLGGGVETGSITELFGEFRTGRSQLCHTLAVTCQIPLDIGGGEGKCLYIDTEGTFRPVRLVSIAQRFGLDPDDALNNVAYARAYNADHQLRLLDAAAQMMSESRFSLIVVDSVMALYRTDFSGRGELSARQMHLAKFMRALQRLADQFGVAVVVTNQVVAQVDGGMAFNPDPKKPIGGNIMAHSSTTRLGFKKGKGCQRLCKVVDSPCLPEAECVFAIYEDGVGDPREEDE
– | binds | GST–Hed1–6xHis–GFP (natural protein, S. cerevisiae, UniProt Q03937 1-162, looked up) MQQRSNRRSCSYIPLGVHNNAEKSLCTEVAPARKNKRSITTSPIVNINVVERRLFNLELEKQQLRAKNLSENTGGGSPNGGAYLDAKKGVREQDQYQGGPSKELDRLQPPPSMKKSPPRKKKSLKDLIYETNKTFYQVDSNKVKYKVGLSKKQLLPSKTVDN
